The target in assay [1] is human C-type lectin domain family 2 member (hCLEC2D) expressed on transfected 300.19 cells (human) (UniProt Q9UHP7). Briefly: FACS, hCLEC2D 300.19 cells, assay 1, Ab 0.01 ug/ml. For orientation: In flow cytometry, cells or beads pass a laser one at a time.
Assay [2] shares this target. The experiment in a line: FACS, hCLEC2D 300.19 cells, assay 1, Ab 1 ug/ml.
Assay [3] has the same target. The experiment in a line: FACS, hCLEC2D 300.19 cells, assay 2, Ab 0.1 ug/ml.
The target is the same in assay [4]. Briefly: FACS, hCLEC2D 300.19 cells, assay 2, Ab approx 10 ug/ml.
Assay [5] has the same target. Briefly: FACS, hCLEC2D 300.19 cells, assay 2, Ab 1 ug/ml.
The target is the same in assay [6]. The experiment in a line: FACS, hCLEC2D 300.19 cells, assay 1, Ab approx 10 ug/ml.
The target is the same in assay [7]. Briefly: FACS, hCLEC2D 300.19 cells, assay 2, Ab 0.01 ug/ml.
Assay [8] shares this target. The experiment in a line: FACS, hCLEC2D 300.19 cells, assay 1, Ab 0.1 ug/ml.

The source of these data is patent publication US20200385482A1.

human C-type lectin domain family 2 member (hCLEC2D) expressed on transfected 300.19 cells (human), sequence (Q9UHP7 whole entry, the tested form may be a part): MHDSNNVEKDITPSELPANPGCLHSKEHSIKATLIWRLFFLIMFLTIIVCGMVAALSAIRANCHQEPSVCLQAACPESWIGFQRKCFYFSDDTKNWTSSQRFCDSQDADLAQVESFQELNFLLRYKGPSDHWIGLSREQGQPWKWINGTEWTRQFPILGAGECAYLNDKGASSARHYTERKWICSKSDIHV

As to control hIgG (antibody), the Cells PE-A Mean in assay [1] came out at 146 MFI; in assay [2], 351 MFI; in assay [3], 175 MFI; in assay [4], 1540 MFI; in assay [5], 351 MFI; in assay [6], 1540 MFI. Besides, the Cells PE-A Mean is 146 MFI in assay [7] and 175 MFI in assay [8].
